In the supplement of paper PMC7125110:
± gives the standard error. This sample holds only a part of the variants without activity.

B1: glmS ribozyme (parent)
chain: AUAAAAGCGCCAGAACUACAGAAAUGUAGUUGACGAGGAGGAGGUUUAUCGAAUUUUCGGCGGAUGCCUCCAAA

How the values were obtained:
Conditions in all cases: with glucosamine-6-phosphate
glucosamine-6-phosphate [1] = variants of: B1; experiment: self-cleavage kobs at 40 uM GlcN6P; higher = faster cleavage; RNA array
Procedure, shortened: (§1)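 Barcoded ribozyme variants, transcribed in situ by E. coli RNA polymerase on sequenced MiSeq chips, were followed via a hybridised Cy3 probe at 37 °C. Glucosamine-6-phosphate ranged from 40 μM to 10 mM in HEPES/KCl/Mg(OAc)2 buffer. kobs came from decay fits to per-tile medians, and kcat and KM from weighted Michaelis–Menten fits.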

glucosamine-6-phosphate [2] = variants of: B1; experiment: self-cleavage kobs at 160 uM GlcN6P; higher = faster cleavage; RNA array
Procedure, shortened: as §1

glucosamine-6-phosphate [3] = variants of: B1; experiment: self-cleavage kobs at 640 uM GlcN6P; higher = faster cleavage; RNA array
Procedure, shortened: as §1

glucosamine-6-phosphate [4] = variants of: B1; experiment: self-cleavage kobs at 2500 uM GlcN6P; higher = faster cleavage; RNA array
Procedure, shortened: as §1

glucosamine-6-phosphate [5] = variants of: B1; experiment: self-cleavage kobs at 10000 uM GlcN6P; higher = faster cleavage; RNA array
Procedure, shortened: as §1

Variant | self-cleavage kobs at 40 uM GlcN6P (glucosamine-6-phosphate [1]) [s⁻¹] | self-cleavage kobs at 160 uM GlcN6P (glucosamine-6-phosphate [2]) [s⁻¹] | self-cleavage kobs at 640 uM GlcN6P (glucosamine-6-phosphate [3]) [s⁻¹] | self-cleavage kobs at 2500 uM GlcN6P (glucosamine-6-phosphate [4]) [s⁻¹] | self-cleavage kobs at 10000 uM GlcN6P (glucosamine-6-phosphate [5]) [s⁻¹]
A12C G63A | < 1e-05 | < 1e-05 | < 1e-05 | < 1e-05 | < 1e-05
A12G G13C G32U G40A A64C | < 1e-05 | – | – | – | –
G13A G44A | < 1e-05 | – | – | – | –
G13C U57C | < 1e-05 | < 1e-05 | < 1e-05 | – | –
G13A U47C C58U C71U | < 1e-05 | – | – | – | 6.08e-05 ± 1.3e-05
G13A C16G A64U | < 1e-05 | – | – | – | –
C10U U31A A53C U55G | < 1e-05 | – | – | – | –
C10U G38C | < 1e-05 | < 1e-05 | – | – | –
C10U G37U U45A | < 1e-05 | – | – | – | –
C10U U45A G51U C67A | < 1e-05 | – | – | – | –
G13C C16U C67A | < 1e-05 | – | – | – | 3.41e-05 ± 1.2e-05
A12U A15U C16A G41A G66A | < 1e-05 | – | – | – | –
C11A A12U A52U | < 1e-05 | – | – | – | –
C11G G62A | < 1e-05 | – | – | – | –
C10U U55G | < 1e-05 | < 1e-05 | – | – | 2.49e-05 ± 9.6e-06
G13A G59U | < 1e-05 | – | – | – | –
C11A A15C U45G C70U | < 1e-05 | – | – | – | –
C11A A14U A36U U46A | < 1e-05 | – | – | < 1e-05 | < 1e-05
C11A G44U G59U C67A | 0.000322 ± 8.1e-05 | – | – | – | 0.00946 ± 0.002
C11G U69G C71U | 4.35e-05 ± 2.1e-05 | – | – | – | –

Variant | self-cleavage kobs at 40 uM GlcN6P (glucosamine-6-phosphate [1]) [s⁻¹] | self-cleavage kobs at 160 uM GlcN6P (glucosamine-6-phosphate [2]) [s⁻¹] | self-cleavage kobs at 640 uM GlcN6P (glucosamine-6-phosphate [3]) [s⁻¹] | self-cleavage kobs at 2500 uM GlcN6P (glucosamine-6-phosphate [4]) [s⁻¹] | self-cleavage kobs at 10000 uM GlcN6P (glucosamine-6-phosphate [5]) [s⁻¹]
C11A A33U U45A | < 1e-05 | – | < 1e-05 | < 1e-05 | –
C11U U49C G51U | < 1e-05 | – | – | – | –
A12G A14G U30A U46C U49C U57C | < 1e-05 | – | – | < 1e-05 | < 1e-05
G13C G35C | < 1e-05 | < 1e-05 | – | < 1e-05 | < 1e-05
G13A A14U C50G C68U | 8.53e-05 ± 1.7e-05 | – | 0.000187 ± 4.7e-05 | 0.000455 ± 0.00016 | 0.000103 ± 1.5e-05
C10U U31C C34U | < 1e-05 | – | – | – | –
C11U G32U U49A C71A | < 1e-05 | – | – | – | –
A12U C16U G62A | < 1e-05 | – | – | – | –
A12G G44C C67G | < 1e-05 | – | – | – | 0.000225 ± 4.3e-05
A12U A52C C58U C71U | < 1e-05 | – | – | – | –
G13A A36G G44U A53U | < 1e-05 | – | – | < 1e-05 | < 1e-05
C10U G60U | < 1e-05 | < 1e-05 | < 1e-05 | – | < 1e-05
A12U U49C | < 1e-05 | – | – | < 1e-05 | –
G13C G44U | < 1e-05 | < 1e-05 | < 1e-05 | < 1e-05 | < 1e-05
C11G G13A | < 1e-05 | < 1e-05 | – | – | < 1e-05
C11A G37C A39G G41A U47G | < 1e-05 | – | – | – | < 1e-05
C10U G13A A39U G60U | < 1e-05 | – | – | – | –
C11G A53U | < 1e-05 | – | – | – | –
C11G U31G A53C | < 1e-05 | – | – | – | –
G13A U46G | < 1e-05 | < 1e-05 | – | – | 0.00013 ± 3e-05

Variant | self-cleavage kobs at 40 uM GlcN6P (glucosamine-6-phosphate [1]) [s⁻¹] | self-cleavage kobs at 160 uM GlcN6P (glucosamine-6-phosphate [2]) [s⁻¹] | self-cleavage kobs at 640 uM GlcN6P (glucosamine-6-phosphate [3]) [s⁻¹] | self-cleavage kobs at 2500 uM GlcN6P (glucosamine-6-phosphate [4]) [s⁻¹] | self-cleavage kobs at 10000 uM GlcN6P (glucosamine-6-phosphate [5]) [s⁻¹]
A12C A33G U65C | < 1e-05 | – | – | – | –
G13C G37A C50U G59C | < 1e-05 | – | < 1e-05 | < 1e-05 | –
C10U U45G | < 1e-05 | < 1e-05 | < 1e-05 | – | < 1e-05
C11A A12C G38U U69A | 0.000405 ± 0.00012 | – | – | – | 4.3e-05 ± 2e-05
C10U U54A U57C | < 1e-05 | – | – | – | –
A12U C16G U56G G59U | < 1e-05 | – | – | – | –
A12U C67A | 0.000743 ± 7.6e-05 | 0.000983 ± 0.00027 | 0.00261 ± 0.00048 | 0.0101 ± 0.0038 | –
C11U G13A A33C A53U | < 1e-05 | – | – | – | –
A12C G32A G44C | < 1e-05 | – | – | < 1e-05 | –
C11A C34U G63C | < 1e-05 | – | < 1e-05 | < 1e-05 | –
C11A A14C A36G C50U C58U C61G | 0.000206 ± 8.1e-05 | – | – | – | –
C11U C34G G41A U47G | < 1e-05 | – | < 1e-05 | < 1e-05 | < 1e-05
C11U U31C U47C A52U | < 1e-05 | – | – | – | < 1e-05
A12U C50G G51C | < 1e-05 | – | – | – | –
C11U C50G C68G | 6.75e-05 ± 1.4e-05 | – | 0.000123 ± 1.8e-05 | 0.000141 ± 2.8e-05 | –
C10U G44A | < 1e-05 | < 1e-05 | < 1e-05 | – | < 1e-05
G13C U46G | < 1e-05 | < 1e-05 | < 1e-05 | – | –
C10U G66C | < 1e-05 | – | < 1e-05 | – | < 1e-05
